# From publication PMC3663191 (mBio, 2013)
# Where “and” joins values, the source holds several entries; their conditions need not be identical. Equal entries are not always repeated.
# Target: the molecule itself
# Assay: SEC
row,Protein,stoichiometry N
1,"WspR^wt (His-tagged WspR, purified) (enzyme, Pseudomonas aeruginosa) MHNPHESKTDLGAPLDGAVMVLLVDDQAMIGEAVRRSLASEAGIDFHFCSDPQQAVAVANQIKPTVILQDLVMPGVDGLTLLAAYRGNPATRDIPIIVLSTKEEPTVKSAAFAAGANDYLVKLPDAIELVARIRYHSRSYIALQQRDEAYRALRESQQQLLETNLVLQRLMNSDGLTGLSNRRHFDEYLEMEWRRSLREQSQLSLLMIDVDYFKSYNDTFGHVAGDEALRQVAGAIREGCSRSSDLAARYGGEEFAMVLPGTSPGGARLLAEKVRRTVESLQISHDQPRPGSHLTVSIGVSTLVPGGGGQTFRVLIEMADQALYQAKNNGRNQVGLMEQPVPPAPAG",4 and 2
2,"WspR^V72D (His-tagged WspR V72D variant, purified) (enzyme, Pseudomonas aeruginosa) MHNPHESKTDLGAPLDGAVMVLLVDDQAMIGEAVRRSLASEAGIDFHFCSDPQQAVAVANQIKPTVILQDLDMPGVDGLTLLAAYRGNPATRDIPIIVLSTKEEPTVKSAAFAAGANDYLVKLPDAIELVARIRYHSRSYIALQQRDEAYRALRESQQQLLETNLVLQRLMNSDGLTGLSNRRHFDEYLEMEWRRSLREQSQLSLLMIDVDYFKSYNDTFGHVAGDEALRQVAGAIREGCSRSSDLAARYGGEEFAMVLPGTSPGGARLLAEKVRRTVESLQISHDQPRPGSHLTVSIGVSTLVPGGGGQTFRVLIEMADQALYQAKNNGRNQVGLMEQPVPPAPAG",4 and 2
